Assay results taken from publication PMC10850085 (Nature Communications, 2024).
No end group written: not given here. *: point of attachment. Biotin = O=C1N[C@H]2[C@H](CS[C@H]2CCCCC(=O)*)N1

T1: murine TpoR ectodomain, monomeric (TpoR_(1-479)) (mouse, UniProt Q08351 26-479, N-linked glycans at N117, N178, N349; tryptophan mannosylation (W465, W468))
T1 chain: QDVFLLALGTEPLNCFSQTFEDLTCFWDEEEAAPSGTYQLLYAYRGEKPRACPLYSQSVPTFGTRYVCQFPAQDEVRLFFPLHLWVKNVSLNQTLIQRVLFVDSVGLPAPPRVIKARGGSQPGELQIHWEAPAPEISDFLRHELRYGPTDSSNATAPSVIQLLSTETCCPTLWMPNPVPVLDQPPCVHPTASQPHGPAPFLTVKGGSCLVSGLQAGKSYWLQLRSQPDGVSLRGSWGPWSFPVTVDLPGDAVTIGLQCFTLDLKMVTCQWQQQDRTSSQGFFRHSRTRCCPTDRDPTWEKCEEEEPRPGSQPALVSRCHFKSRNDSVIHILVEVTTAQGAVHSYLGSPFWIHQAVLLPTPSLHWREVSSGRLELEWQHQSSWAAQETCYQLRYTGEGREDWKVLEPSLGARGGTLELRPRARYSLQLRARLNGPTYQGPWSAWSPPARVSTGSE

T2: murine TpoR ectodomain, monomeric (TpoR_(1-479)) (mouse, UniProt Q08351 26-479, N-linked glycans at N117, N178, N349; tryptophan mannosylation (W465, W468))
T2 construct: signal peptide in the construct; Thrombopoietin receptor (c-Mpl), mouse, residues 1-479, followed by a TEV cleavage site and the Fc domain of hIgG1; Eluted from Protein G resin by TEV cleavage; residues of the TEV site may remain at the C-terminus; also called murine TpoR (monomeric); source: Expi293F cells, transiently transfected, secreted; purified (Protein G Sepharose, TEV elution, Superdex …)
T2 sequence (looked up): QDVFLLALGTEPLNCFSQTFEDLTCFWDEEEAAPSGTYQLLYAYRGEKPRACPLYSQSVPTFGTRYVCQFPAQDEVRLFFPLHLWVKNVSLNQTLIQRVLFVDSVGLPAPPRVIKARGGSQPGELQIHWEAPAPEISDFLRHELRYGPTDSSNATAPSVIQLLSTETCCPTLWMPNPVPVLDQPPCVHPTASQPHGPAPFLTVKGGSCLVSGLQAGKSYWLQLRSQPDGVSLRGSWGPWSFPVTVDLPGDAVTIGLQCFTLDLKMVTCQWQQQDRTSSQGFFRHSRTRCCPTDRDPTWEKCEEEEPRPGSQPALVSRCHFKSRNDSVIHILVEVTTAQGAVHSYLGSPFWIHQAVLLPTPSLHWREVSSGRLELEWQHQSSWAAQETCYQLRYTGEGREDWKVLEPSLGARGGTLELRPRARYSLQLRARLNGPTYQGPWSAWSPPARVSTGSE


Legend:
[1] = molecular target: murine TpoR ectodomain, monomeric (TpoR_(1-479)) (mouse) (UniProt Q08351)
[2] = molecular target: murine TpoR ectodomain, monomeric (TpoR_(1-479)) (mouse) (UniProt Q08351); test: SPR; high concentrations of the Tpo F162E mutant, up to 10 µM; which TpoR form and which partner was immobilised is not stated
[3] = molecular target: T1, murine TpoR ectodomain, monomeric …; test: SPR; TpoR over immobilised romiplostim peptide
[4] = molecular target: T1, murine TpoR ectodomain, monomeric …; test: SPR; TpoR over immobilised romiplostim peptide
[5] = molecular target: T2, murine TpoR ectodomain, monomeric …; test: SPR; TpoR (monomeric, dimeric or mutants) as analyte over N-terminally biotinylated romiplostim peptides on streptavidin chips; HBS-EP; two-fold dilution series, highest 100 nM; settings: both partners purified

Molecule | ability to induce differentiation of M1(TpoR) cells, fold decrease relative to the WT [1] [fold] | binding result [5] | also measured
murine Tpo D29Y (site II mutant) (from UniProt P40226 22-356) (ligand) | 100 | – | –
murine Tpo F162E (site I mutant) (from UniProt P40226 22-356) (ligand) | – | – | Kd [2]: > 10000 nM
murine Tpo D29E (site II mutant) (from UniProt P40226 22-356) (ligand) | 100 | – | –
Biotin-IEGPTLRQWLAARAGGIEGPTLRQWLAARA (two copies of the TpoR agonist peptide joined by GG; Not the Fc fusion drug itself; The biotin is stated for the peptides coupled to streptavidin chips; also called romiplostim peptide; dimeric romiplostim peptide; source: synthetic peptide) [peptide version of romiplostim (two copies of IEGPTLRQWLAARA connected by a GG linker)] | – | binds | Kd [3]: 71 nM; koff [4]: 0.017 s⁻¹
Biotin-IEGPTLRQWLAARA (TpoR agonist peptide motif of romiplostim; also called monomeric-romiplostim; monomeric version of the peptide; source: synthetic peptide) [monomeric version of the romiplostim peptide] | – | binds | –
